Changes are numbered by the printed parent chain. Names may count otherwise.
T1: TNFR1 (Homo sapiens, UniProt P19438)
T1 chain: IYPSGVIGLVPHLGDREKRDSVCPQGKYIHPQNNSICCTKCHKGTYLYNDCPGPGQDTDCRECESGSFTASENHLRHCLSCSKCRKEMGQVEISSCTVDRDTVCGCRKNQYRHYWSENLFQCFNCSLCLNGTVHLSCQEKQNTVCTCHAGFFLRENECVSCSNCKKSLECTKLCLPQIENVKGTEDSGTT

B1: K30Q (designed binder)
chain: MTLQELLREEALRRAEAEAFRYALELLAEQFPEQKEYLLDLAEEIESQIRSLSGVDVEDVRKFLDKEWAWVKELLAEHPAELAEVEAARAARLAELRAEVEAKVAA
B2: W68I (designed binder)
chain: B1 chain with Q30K, W68I
B3: A76R (designed binder)
chain: B1 chain with Q30K, A76R
B4: A102M (designed binder)
chain: B1 chain with Q30K, A102M
B5: A98F (designed binder)
chain: B1 chain with Q30K, A98F
B6: L52W (designed binder)
chain: B1 chain with Q30K, L52W
B7: R92C (designed binder)
chain: B1 chain with Q30K, R92C
B8: Q48T (designed binder)
chain: B1 chain with Q30K, Q48T
B9: E5H (designed binder)
chain: B1 chain with E5H, Q30K
B10: F31H (designed binder)
chain: B1 chain with Q30K, F31H
B11: A83S (designed binder)
chain: B1 chain with Q30K, A83S
B12: A17S (designed binder)
chain: B1 chain with A17S, Q30K
B13: I49Y (designed binder)
chain: B1 chain with Q30K, I49Y
B14: L3I (designed binder)
chain: B1 chain with L3I, Q30K
B15: K30C (designed binder)
chain: B1 chain with Q30C
B16: S51A (designed binder)
chain: B1 chain with Q30K, S51A
B17: F20K (designed binder)
chain: B1 chain with F20K, Q30K
B18: D65W (designed binder)
chain: B1 chain with Q30K, D65W
B19: E5G (designed binder)
chain: B1 chain with E5G, Q30K
B20: A106C (designed binder)
chain: B1 chain with Q30K, A106C
B21: E18Y (designed binder)
chain: B1 chain with E18Y, Q30K
B22: A23K (designed binder)
chain: B1 chain with A23K, Q30K
B23: R97V (designed binder)
chain: B1 chain with Q30K, R97V
B24: D40F (designed binder)
chain: B1 chain with Q30K, D40F
B25: L74G (designed binder)
chain: B1 chain with Q30K, L74G
B26: E77C (designed binder)
chain: B1 chain with Q30K, E77C
B27: D56L (designed binder)
chain: B1 chain with Q30K, D56L
B28: E43A (designed binder)
chain: B1 chain with Q30K, E43A
B29: A105E (designed binder)
chain: B1 chain with Q30K, A105E
B30: A28H (designed binder)
chain: B1 chain with A28H, Q30K
B31: F63A (designed binder)
chain: B1 chain with Q30K, F63A
B32: I49Q (designed binder)
chain: B1 chain with Q30K, I49Q
B33: V104L (designed binder)
chain: B1 chain with Q30K, V104L
B34: K62M (designed binder)
chain: B1 chain with Q30K, K62M
B35: R21N (designed binder)
chain: B1 chain with R21N, Q30K
B36: L24S (designed binder)
chain: B1 chain with L24S, Q30K
B37: A105V (designed binder)
chain: B1 chain with Q30K, A105V
B38: R8D (designed binder)
chain: B1 chain with R8D, Q30K
B39: P79V (designed binder)
chain: B1 chain with Q30K, P79V
B40: G54V (designed binder)
chain: B1 chain with Q30K, G54V
B41: L74A (designed binder)
chain: B1 chain with Q30K, L74A
B42: Q48E (designed binder)
chain: B1 chain with Q30K, Q48E
B43: E73P (designed binder)
chain: B1 chain with Q30K, E73P

Target: T1, TNFR1
Experiment: yeast display SC50

apparent Kd (screen) | Binder
718 pM | B1
790 pM | B2
490 pM | B3
718 pM | B4
593 pM | B5
405 pM | B6
718 pM | B7
1540 pM | B8
490 pM | B9
1400 pM | B10
539 pM | B11
956 pM | B12
2480 pM | B13
539 pM | B14
539 pM | B15
869 pM | B16
22200 pM | B17
790 pM | B18
653 pM | B19
1160 pM | B20
539 pM | B21
539 pM | B22

apparent Kd (screen) | Binder
490 pM | B23
18300 pM | B24
6430 pM | B25
1160 pM | B26
2730 pM | B27
790 pM | B28
593 pM | B29
7780 pM | B30
1270 pM | B31
368 pM | B32
718 pM | B33
718 pM | B34
653 pM | B35
869 pM | B36
718 pM | B37
593 pM | B38
790 pM | B39
653 pM | B40
1690 pM | B41
142 pM | B42
5310 pM | B43

Reference: PMC12416549 (2024)
